Measurements as given in patent US20180057601A1 (PIERRE FABRE MEDICAMENT, published 2018).

Columns and labels:
[1] = target: ADAM17 at the plasma membrane of A431 cells (human, UniProt P78536 215-824); experiment: cell-based or functional assay
Peptide_032 = target: T1, Peptide_032; experiment: peptide microarray: immobilized 15-mer peptides, Cy5 anti-human IgG; signal as ratio to control antibody ch9G4
T1 construct: immobilized on the microarray
T1 peptide: IDQLSINTFGKFLAD
Experimental: (§1) Peptide micro array epitope characterization was performed by JPT Peptide Technologies GmbH, Berlin, Germany. In brief the analysis was performed as follows: 32-linear 15-meric peptide sequences representing an overlapping peptide scan (15/12) through the ADAM17 membrane proximal domain were synthesized (Table 5) and immobilized on microarray slides four additional peptides were included by JPT as internal process control spots. Moreover, human IgG and mouse IgG were co-immobilized on the microarray to serve as assay controls. Furthermore, rhADAM17 protein was co-immobilized as an additional control.
(§2) The assay was performed using a Multiwell incubation chamber. Microarrays were incubated with 100 μg/ml 1022C3 or control antibody ch9G4 diluted in blocking buffer (Pierce International, Superblock TBS T20, order No 37536) overnight at 4° C. Microarrays were then incubated with 1 μg/ml Cy5 labelled secondary antibody (anti-human IgG, JIR, 109-175-098) diluted in blocking buffer for 60 min at 30° C. Microarrays were dried. Before each step microarrays were washed with washing buffer (50 mM TBS-buffer, 0.1% Tween20 (v/v), pH 7.2).
(§3) Microarrays were scanned using a high resolution fluorescence scanner. Laser settings and applied resolution were identical for all performed measurements. The resulting images were analyzed and quantified using spot-recognition software GenePix (Molecular Devices). For each spot, the mean signal intensity was extracted (between 0 and 65535 arbitrary units). The ration of signal intensity between 1022C3 and the control antibody ch9G4 was compared between multiple experiments and peptides with a signal three fold higher 1022C3 than ch9G4 were identified (FIG. 3).

Peptide_030 = target: T2, Peptide_030; experiment: as above
T2 construct: immobilized on the microarray
T2 peptide: RFWDFIDQLSINTFG
Experimental: as §1, §2, §3

Peptide_018 = target: T3, Peptide_018; experiment: as above
T3 construct: immobilized on the microarray
T3 peptide: VDAEQKNLFLRKGKP
Experimental: as §1, §2, §3

Peptide_008 = target: T4, Peptide_008; experiment: as above
T4 construct: immobilized on the microarray
T4 peptide: EQQLESCACNETDNS
Experimental: as §1, §2, §3

Peptide_028 = target: T5, Peptide_028; experiment: as above
T5 construct: immobilized on the microarray
T5 peptide: VQDVIERFWDFIDQL
Experimental: as §1, §2, §3

Peptide_007 = target: T6, Peptide_007; experiment: as above
T6 construct: immobilized on the microarray
T6 peptide: CEREQQLESCACNET
Experimental: as §1, §2, §3

Peptide_024 = target: T7, Peptide_024; experiment: as above
T7 construct: immobilized on the microarray
T7 peptide: GFCDMNGKCEKRVQD
Experimental: as §1, §2, §3

Peptide_005 = target: T8, Peptide_005; experiment: as above
T8 construct: immobilized on the microarray
T8 peptide: GKCIPFCEREQQLES
Experimental: as §1, §2, §3

Peptide_022 = target: T9, Peptide_022; experiment: as above
T9 construct: immobilized on the microarray
T9 peptide: GKPCTVGFCDMNGKC
Experimental: as §1, §2, §3

Peptide_023 = target: T10, Peptide_023; experiment: as above
T10 construct: immobilized on the microarray
T10 peptide: CTVGFCDMNGKCEKR
Experimental: as §1, §2, §3

Peptide_004 = target: T11, Peptide_004; experiment: as above
T11 construct: immobilized on the microarray
T11 peptide: CKDGKCIPFCEREQQ
Experimental: as §1, §2, §3

Peptide_021 = target: T12, Peptide_021; experiment: as above
T12 construct: immobilized on the microarray
T12 peptide: LRKGKPCTVGFCDMN
Experimental: as §1, §2, §3

Peptide_009 = target: T13, Peptide_009; experiment: as above
T13 construct: immobilized on the microarray
T13 peptide: LESCACNETDNSCKV
Experimental: as §1, §2, §3

Peptide_025 = target: T14, Peptide_025; experiment: as above
T14 construct: immobilized on the microarray
T14 peptide: DMNGKCEKRVQDVIE
Experimental: as §1, §2, §3

Peptide_006 = target: T15, Peptide_006; experiment: as above
T15 construct: immobilized on the microarray
T15 peptide: IPFCEREQQLESCAC
Experimental: as §1, §2, §3

Peptide_026 = target: T16, Peptide_026; experiment: as above
T16 construct: immobilized on the microarray
T16 peptide: GKCEKRVQDVIERFW
Experimental: as §1, §2, §3

Peptide_029 = target: T17, Peptide_029; experiment: as above
T17 construct: immobilized on the microarray
T17 peptide: VIERFWDFIDQLSIN
Experimental: as §1, §2, §3

Peptide_031 = target: T18, Peptide_031; experiment: as above
T18 construct: immobilized on the microarray
T18 peptide: DFIDQLSINTFGKFL
Experimental: as §1, §2, §3

Peptide_015 = target: T19, Peptide_015; experiment: as above
T19 construct: immobilized on the microarray
T19 peptide: DLSGRCVPYVDAEQK
Experimental: as §1, §2, §3

Peptide_012 = target: T20, Peptide_012; experiment: as above
T20 construct: immobilized on the microarray
T20 peptide: DNSCKVCCRDLSGRC
Experimental: as §1, §2, §3

Peptide_010 = target: T21, Peptide_010; experiment: as above
T21 construct: immobilized on the microarray
T21 peptide: CACNETDNSCKVCCR
Experimental: as §1, §2, §3

Peptide_016 = target: T22, Peptide_016; experiment: as above
T22 construct: immobilized on the microarray
T22 peptide: GRCVPYVDAEQKNLF
Experimental: as §1, §2, §3

Peptide_001 = target: T23, Peptide_001; experiment: as above
T23 construct: immobilized on the microarray
T23 peptide: DTVCLDLGKCKDGKC
Experimental: as §1, §2, §3

Peptide_027 = target: T24, Peptide_027; experiment: as above
T24 construct: immobilized on the microarray
T24 peptide: EKRVQDVIERFWDFI
Experimental: as §1, §2, §3

Peptide_014 = target: T25, Peptide_014; experiment: as above
T25 construct: immobilized on the microarray
T25 peptide: CCRDLSGRCVPYVDA
Experimental: as §1, §2, §3

Peptide_019 = target: T26, Peptide_019; experiment: as above
T26 construct: immobilized on the microarray
T26 peptide: EQKNLFLRKGKPCTV
Experimental: as §1, §2, §3

Peptide_011 = target: T27, Peptide_011; experiment: as above
T27 construct: immobilized on the microarray
T27 peptide: NETDNSCKVCCRDLS
Experimental: as §1, §2, §3

Sequence of ADAM17 at the plasma membrane of A431 cells (P78536 215-824 limits assumed): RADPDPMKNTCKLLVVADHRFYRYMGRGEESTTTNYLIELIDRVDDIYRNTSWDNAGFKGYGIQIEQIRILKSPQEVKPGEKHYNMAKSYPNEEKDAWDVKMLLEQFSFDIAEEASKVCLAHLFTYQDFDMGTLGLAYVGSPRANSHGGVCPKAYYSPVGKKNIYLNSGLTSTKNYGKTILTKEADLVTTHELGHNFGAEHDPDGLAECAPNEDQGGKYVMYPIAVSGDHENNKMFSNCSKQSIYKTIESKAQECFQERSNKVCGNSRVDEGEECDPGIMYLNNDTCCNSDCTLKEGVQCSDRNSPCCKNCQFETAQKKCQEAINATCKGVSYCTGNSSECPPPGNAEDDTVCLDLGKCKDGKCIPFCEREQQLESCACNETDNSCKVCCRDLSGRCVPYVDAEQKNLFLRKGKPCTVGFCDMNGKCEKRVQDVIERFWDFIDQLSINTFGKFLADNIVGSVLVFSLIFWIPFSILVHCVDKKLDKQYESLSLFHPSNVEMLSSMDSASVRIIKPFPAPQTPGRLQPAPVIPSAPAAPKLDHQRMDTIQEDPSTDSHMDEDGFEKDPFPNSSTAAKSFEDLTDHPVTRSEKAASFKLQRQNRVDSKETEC

B1: hz1022C3 (antibody, V domains shown)
VH: QVQLQESGPGLVKPSETLSLTCTVSGFSLDTSGMGVSWIRQPAGKGLEWIGHIYWDDDKRYNPSLKSRVTMSKDTSSNQVSLKLSSVTAADTAVYYCARRSHFGNYYYAMDYWGQGTTVTVSS
VL: DIQMTQSPSSLSASVGDRVTITCRASQDISSYLNWYQQKPGKAPKLLIFYTSRLQSGVPSRFSGSGSGTDFTLTISSLQPEDFATYYCQQGKTLPLTFGGGTKVEIK
notes: also called mAb hz1022C3; anti-ADAM17 mAb (hz1022C3)
In the case of B1, the “IC50 of inhibition of cellular shedding of (mutated pro-)TNFα-Nluc” value [1] is reported as 0.16 nM, the “IC50 of inhibition of cellular shedding of AREG-Nluc from A431 cells” value [1] is reported as 0.16 nM and the “IC50 of inhibition of cellular shedding of HB-EGF-Nluc from A431 cells” value [1] is reported as 0.19 nM. The “IC50 of inhibition of cellular shedding of TGFα-Nluc from A431 cells” value [1] was 0.12 nM, the “IC50 of inhibition of cellular shedding, mean of the four substrates” value [1] was 0.16 nM and the binding result (Peptide_032) was “no binding (tested: 100 µg/ml)”. B1: no binding (tested: 100 µg/ml) (Peptide_030); no binding (tested: 100 µg/ml) (Peptide_018); no binding (tested: 100 µg/ml) (Peptide_008). B1: no binding (tested: 100 µg/ml) (Peptide_028); no binding (tested: 100 µg/ml) (Peptide_007); no binding (tested: 100 µg/ml) (Peptide_024). B1: no binding (tested: 100 µg/ml) (Peptide_005); no binding (tested: 100 µg/ml) (Peptide_022); no binding (tested: 100 µg/ml) (Peptide_023). B1: no binding (tested: 100 µg/ml) (Peptide_004); no binding (tested: 100 µg/ml) (Peptide_021); no binding (tested: 100 µg/ml) (Peptide_009). B1: no binding (tested: 100 µg/ml) (Peptide_025); no binding (tested: 100 µg/ml) (Peptide_006); no binding (tested: 100 µg/ml) (Peptide_026). B1: no binding (tested: 100 µg/ml) (Peptide_029); no binding (tested: 100 µg/ml) (Peptide_031); no binding (tested: 100 µg/ml) (Peptide_015). B1: no binding (tested: 100 µg/ml) (Peptide_012); no binding (tested: 100 µg/ml) (Peptide_010); no binding (tested: 100 µg/ml) (Peptide_016). B1: no binding (tested: 100 µg/ml) (Peptide_001); no binding (tested: 100 µg/ml) (Peptide_027); no binding (tested: 100 µg/ml) (Peptide_014). B1: no binding (tested: 100 µg/ml) (Peptide_019); no binding (tested: 100 µg/ml) (Peptide_011).
